Biological target: T1, tssk 2 fused to the GAL4 DNA binding domain (DNA-BD) (human, UniProt P04386 1-147 (Saccharomyces cerevisiae entry), limits assumed)
T1 construct: Yeast two-hybrid bait in reporter strain AH109; also called bait gene (tssk 2); TSSK2 fusion protein with the DNA-BD
Assay: yeast two-hybrid, growth in His-free medium
Procedure: In this experiment, a bait gene (tssk 2) was first transformed into the reporter strain as a fusion to the GAL4 DNA binding domain (DNA-BD). A second plasmid that expressed tsks as fusion to the GAL 4 activation domain (AD) was also introduced into the AH109 reporter strain. Western blots were performed to confirm expression of fusion proteins in yeast. […] This interaction was used as a positive control. […] Neither GAL-AD alone nor the fusion proteins between GAL-AD and TSKS or GAL-AD and SV40 Large T antigen had the ability to activate transcription of the His gene.

B1: GAL4 activation domain alone (GAL-AD plasmid) (other, UniProt P04386 768-881, looked up)
chain: ANFNQSGNIADSSLSFTFTNSSNGPNLITTQTNSQALSQPIASSNVHDNFMNNEITASKIDDGNNSKPLSPGWTDQTAYNAFGITTGMFNTTTMDDVYNYLFDDEDTPPNPKKE
notes: Empty prey control in the yeast two-hybrid experiment; also called GAL-AD alone
  binding result: no binding

From patent publication US20030211563A1 (UNIVERSITY OF VIRGINIA PATENT FOUNDATION, published 2003)
